In the supplement of paper PMC9876800:

Tested on: peptide library, one residue held at a place counted from the S/T acceptor
Assay: relative phosphorylation of the sub-library (ratio to the mean residue at this position); higher = residue favoured
Method in brief: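 Relative sub-library phosphorylation is a ratio to the mean residue at the same position. Purified recombinant kinases were incubated under kinase-specific conditions with biotinylated degenerate peptide sub-libraries, each fixing one residue at one position around a central Ser/Thr, using 50 μM peptide and 50 μM ATP spiked with γ-32P-ATP for 90 min. Spots captured on streptavidin membranes were phosphorimaged and quantified by densitometry.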

Sequence of STK33, construct: Full length, human (Q9BYT3 whole entry, looked up): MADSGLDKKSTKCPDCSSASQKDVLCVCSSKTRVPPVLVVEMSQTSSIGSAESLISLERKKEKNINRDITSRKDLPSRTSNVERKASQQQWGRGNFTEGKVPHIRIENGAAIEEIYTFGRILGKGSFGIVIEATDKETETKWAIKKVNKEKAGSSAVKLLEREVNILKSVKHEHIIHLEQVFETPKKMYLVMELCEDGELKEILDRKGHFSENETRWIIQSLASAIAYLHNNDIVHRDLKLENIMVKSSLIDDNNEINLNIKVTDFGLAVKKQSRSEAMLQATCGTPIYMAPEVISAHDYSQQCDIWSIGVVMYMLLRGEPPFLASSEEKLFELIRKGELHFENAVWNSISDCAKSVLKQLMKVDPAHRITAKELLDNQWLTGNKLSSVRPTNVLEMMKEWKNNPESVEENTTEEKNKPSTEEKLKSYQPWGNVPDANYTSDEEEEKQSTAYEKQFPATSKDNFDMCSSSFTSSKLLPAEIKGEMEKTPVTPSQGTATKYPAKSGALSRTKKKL
Sequence of CDK8, construct: Full length*, human (P49336 whole entry, looked up): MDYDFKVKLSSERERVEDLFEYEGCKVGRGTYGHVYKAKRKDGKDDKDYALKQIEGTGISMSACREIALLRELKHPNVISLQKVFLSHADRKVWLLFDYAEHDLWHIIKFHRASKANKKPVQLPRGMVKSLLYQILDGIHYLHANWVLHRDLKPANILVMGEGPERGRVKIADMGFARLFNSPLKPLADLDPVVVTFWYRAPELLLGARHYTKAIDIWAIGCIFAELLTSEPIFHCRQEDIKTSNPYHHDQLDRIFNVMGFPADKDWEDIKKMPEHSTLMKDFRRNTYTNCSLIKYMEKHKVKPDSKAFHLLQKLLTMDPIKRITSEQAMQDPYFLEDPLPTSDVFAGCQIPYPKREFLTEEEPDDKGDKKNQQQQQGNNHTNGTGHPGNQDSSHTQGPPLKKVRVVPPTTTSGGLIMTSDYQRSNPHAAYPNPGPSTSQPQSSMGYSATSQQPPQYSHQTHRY

STK33, construct: Full length, human (from UniProt Q9BYT3)
relative phosphorylation
Details	at +1	at +2	at +3	at +4	at -1	at -2	at -3	at -4	at -5
A fixed	0.409	0.63	0.576	0.702	0.899	0.84	0.905	1.03	1.17
D fixed	0.151	0.26	0.433	0.754	0.393	0.433	0.344	0.723	0.731
E fixed	0.158	0.243	0.451	0.951	0.572	0.411	0.355	0.681	0.709
F fixed	1.25	1.85	1.22	0.842	0.653	1.95	1.53	0.855	0.849
G fixed	0.327	0.41	0.743	1.03	0.676	0.987	1.08	1.23	1.43
H fixed	0.745	1.82	1.31	1.12	0.933	1.39	1.07	1.19	1.25
I fixed	1.33	0.956	0.804	0.992	0.574	0.549	0.683	0.661	0.6
K fixed	2.18	0.815	2.01	1.41	2.59	0.826	0.921	1.39	1.72
L fixed	0.893	0.654	0.657	0.801	0.812	0.865	1.62	0.77	0.603
M fixed	1.36	0.871	0.756	0.914	1.14	0.99	1.42	0.836	0.653
N fixed	0.578	0.59	0.655	0.917	0.978	1.32	0.724	1.02	1.11
P fixed	0.217	0.394	0.564	1.38	0.306	0.43	0.915	0.924	1.12
Q fixed	1.23	0.53	0.661	0.994	1.33	0.786	0.836	0.823	0.856
R fixed	3.13	1.16	2.98	1.28	2.9	1.34	1.66	1.42	1.5
V fixed	1.29	0.796	0.721	0.835	0.747	0.568	0.555	0.585	0.613
W fixed	0.768	1.8	1.23	1.21	0.557	1.73	1.23	1.98	1.22
Y fixed	0.988	3.23	1.24	0.882	0.943	1.59	1.16	0.886	0.869
pThr fixed	0.683	0.937	1.23	1.3	0.439	0.702	1.14	1.05	1.24
pTyr fixed	0.677	11.7	1.91	1.8	0.918	0.887	1.02	0.779	1.13

CDK8, construct: Full length*, human (from UniProt P49336)
relative phosphorylation
Details	at +1	at +2	at +3	at +4	at -1	at -2	at -3	at -4	at -5
A fixed	0.287	1.26	1.05	1.01	1.02	1.65	1.08	0.959	0.86
D fixed	0.179	0.789	0.841	1.19	0.791	0.579	0.887	1.18	1.4
E fixed	0.16	0.729	0.743	0.882	0.556	0.602	0.934	1.21	1.32
F fixed	0.26	0.84	0.734	0.893	1.03	0.43	1.04	1.1	1.33
G fixed	0.807	1.31	1.47	1.15	1.47	0.849	1.29	0.931	0.883
H fixed	0.408	1.03	1.12	1.06	0.982	0.643	0.947	1.08	1.01
I fixed	0.463	0.891	0.735	1.04	0.286	1.06	0.684	0.944	0.864
K fixed	0.239	1.11	0.649	0.698	1.03	0.309	0.592	0.842	0.747
L fixed	0.291	1.02	0.694	0.949	1.04	0.936	0.683	0.91	0.911
M fixed	0.36	1.12	1.02	0.955	1.44	1.05	1.48	1.05	0.78
N fixed	0.51	0.899	1.39	0.862	0.866	0.697	1.25	0.836	0.887
P fixed	10.9	0.801	1.91	1.09	1.37	4.62	1.23	0.923	0.896
Q fixed	0.369	1.13	1.03	0.977	1.02	0.876	1.16	0.941	0.917
R fixed	0.231	1.26	0.878	0.847	1.28	0.413	0.631	0.829	0.858
V fixed	1	0.807	0.977	1.09	0.559	1.31	0.698	0.847	0.813
W fixed	0.306	1.02	0.802	1.38	1.19	0.505	1.31	1.21	0.872
Y fixed	0.241	0.976	0.942	0.926	1.07	0.466	1.09	1.21	1.65
pThr fixed	0.423	0.473	0.694	0.882	0.312	0.668	0.74	1.11	0.898
pTyr fixed	0.43	0.934	0.886	0.851	0.758	0.614	0.745	1.13	1.11
